T1: Sup35 NM prion protein (NM domains) (S. cerevisiae, UniProt P05453 1-253)
T1 sequence: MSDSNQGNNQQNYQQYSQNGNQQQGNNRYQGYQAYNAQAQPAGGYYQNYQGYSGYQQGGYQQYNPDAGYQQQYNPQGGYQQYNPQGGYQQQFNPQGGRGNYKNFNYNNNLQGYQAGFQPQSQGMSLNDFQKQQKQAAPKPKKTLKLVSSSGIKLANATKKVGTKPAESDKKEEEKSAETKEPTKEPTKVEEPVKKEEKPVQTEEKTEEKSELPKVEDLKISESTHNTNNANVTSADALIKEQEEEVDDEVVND

B1: Hsp104 N‐terminal domain (NTD), wild type (domain or fragment)
chain: MNDQTQFTERALTILTLAQKLASDHQHPQLQPIHILAAFIETPEDGSVPYLQNLIEKGRYDYDLFKKVVNRNLVRIPQQQPAPAEITPSYALGKVLQDAAKIQKQQKDSFIAQDHILFALFNDSSIQQIFKEAQVDIEAIKQQALELRGNTR

Columns and labels:
[1] = target: B1; assay: NMR titration
[2] = target: T1, Sup35 NM prion protein (NM domains); assay: NMR titration
tau 2N4R = tau 2N4R (human, UniProt P10636-8 1-441); assay: co-sedimentation

Binder | binding result [1] | binding result [2] | binding result (tau 2N4R)
α‐lactalbumin (natural protein) EQLTKCEVFRELKDLKGYGGVSLPEWVCTTFHTSGYDTQAIVQNNDSTEYGLFQINNKIWCKDDQNPHSSNICNISCDKFLDDDLTDDIMCVKKILDKVGINYWLAHKALCSEKLDQWLCEKL | binds |  | 
B1 |  | binds | binds
PhoA^349–471 (unfolded PhoA protein fragment, residues 349–471) (domain or fragment) DKQDHAANPCGQIGETVDLDEAVQRALEFAKKEGNTLVIVTADHAHASQIVAPDTKAPGLTQALNTKDGAVMVMSYGNSEEDSQEHTGSQLRIAAYGPHAANVVGLTDQTDLFYTMKAALGLK | binds |  | 

Reference: PMC9541529 (The Febs Journal, 2022)
